How the values were obtained:
[1] = test system: Saccharomyces cerevisiae; test: protein stability index of tFT-peptide fusion in wild type (PSI (0-1 scale)); higher = more stable (slower turnover); details: genetic background: wild type
Description: (§1)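 MPS profiling in S. cerevisiae of two library types built from selected 12-aa C-degron peptides (IN1, IN2, LN1, LN3, VN2, R1-R5, W1-W3, Atg1 and Rpa12 C-termini): saturation mutagenesis libraries and C-terminal +1 capping libraries (13 aa). Each peptide is fused to the C-terminus of a sfGFP-mCherry timer, after a GGGS linker. Cells are FACS-sorted into 8 mCherry/sfGFP bins and sequenced. PSI runs from 0 (unstable) to 1 (stable), measured once in wild type and in the das1Δ or doa10Δ background.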

[2] = test system: Saccharomyces cerevisiae; test: protein stability index of tFT-peptide fusion in deletion strain of DAS1 (PSI (0-1 scale)); higher = more stable (slower turnover)
Description: as §1
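Throughout, for protein stability index of tFT-peptide fusion in deletion strain of DAS1: PSI is a weighted mean of each variant's read distribution over the sorted stability bins, computed only for variants having over 10 reads in total.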
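Throughout, for protein stability index of tFT-peptide fusion in wild type: PSI derived as read-weighted mean over the 8 sorting bins, only variants exceeding 10 total reads kept, mCherry placed adjacent to the peptide and sfGFP distal.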

Sequence | protein stability index [1] | protein stability index [2]
KKHKKGQKQKIR | 0.676 | 0.595
KKHKKGQKQKVN | 0.208 | 0.599
KKHKKGQKQKWN | 0.305 | 0.587
KKHKKGQKQQIN | 0.404 | 0.554
KKHKKGQKRKIN | 0.275 | 0.655
KKHKKGQQQKIN | 0.162 | 0.571
KKHKKGSKQKIN | 0.0787 | 0.673
KKHKKHQKQKIN | 0.0431 | 0.521
KKHKKIQKQKIN | 0.0571 | 0.631
KKHKKMQKQKIN | 0.027 | 0.571
KKHKKWQKQKIN | 0.0352 | 0.585
KKHKQGQKQKIN | 0.0536 | 0.73
KKHKRGQKQKIN | 0.0579 | 0.617
KKHNKGQKQKIN | 0.0428 | 0.645
KKHVKGQKQKIN | 0.0752 | 0.606
LAILRQKMNHQN | 0.137 | 0.67
LHVYLSCVACIN | 0.0172 | 0.109
LKIARQKMNHQN | 0.277 | 0.694
LKIDRQKMNHQN | 0.241 | 0.676
LKILNQKMNHQN | 0.395 | 0.688
LKILRQKANHQN | 0.373 | 0.688
LKILRQKMNFQN | 0.225 | 0.674
LKILRQKMNHCN | 0.191 | 0.669

Sequence | protein stability index [1] | protein stability index [2]
LKILRQKMNHQNV | 0.669 | 0.662
LKILRQKMNHQY | 0.274 | 0.684
LKILRQKMNPQN | 0.689 | 0.677
LKILRQKMNQQN | 0.218 | 0.676
LKILRQKMNYQN | 0.219 | 0.657
LKILRQKMVHQN | 0.19 | 0.657
LKILRQNMNHQN | 0.255 | 0.667
LKILRTKMNHQN | 0.178 | 0.678
LKMLRQKMNHQN | 0.171 | 0.683
LMILRQKMNHQN | 0.166 | 0.676
LQVYLSCVACIN | 0.0249 | 0.0994
LRVYLSCVACIN | 0.0194 | 0.121
LTSCGYKFRTNN | 0.197 | 0.666
LVCYLSCVACIN | 0.0123 | 0.0279
LVHYLSCVACIN | 0.0263 | 0.188
LVTYLSCVACIN | 0.0357 | 0.167
LVVRLSCVACIN | 0.0177 | 0.0347
LVVTLSCVACIN | 0.0146 | 0.0408
LVVYLFCVACIN | 0.0137 | 0.0277
LVVYLMCVACIN | 0.0154 | 0.0335
LVVYLSCDACIN | 0.144 | 0.191
LVVYLSCGACIN | 0.283 | 0.3
LVVYLSCVACIA | 0.0168 | 0.0258

Sequence | protein stability index [1] | protein stability index [2]
LVVYLSCVACIK | 0.0121 | 0.0213
LVVYLSCVACIL | 0.0189 | 0.032
LVVYLSCVACINC | 0.0649 | 0.0918
LVVYLSCVACINR | 0.0215 | 0.034
LVVYLSCVACINW | 0.0246 | 0.0403
LVVYLSCVACWN | 0.0216 | 0.0568
LVVYLSCVAPIN | 0.457 | 0.449
LVVYLSCVGCIN | 0.244 | 0.293
LVVYLSCVNCIN | 0.135 | 0.419
LVVYLSCVRCIN | 0.109 | 0.335
LVVYLSCVYCIN | 0.0441 | 0.158
LVVYLSCWACIN | 0.02 | 0.0504
LVVYLSCYACIN | 0.0136 | 0.0478
LVVYLSQVACIN | 0.0161 | 0.0854
LVVYLVCVACIN | 0.0125 | 0.0307
MTSCGYKFRTNN | 0.212 | 0.688
NRGAVGGWRLVG | 0.164 | 0.665
PDARNHLIKLLN | 0.12 | 0.612
PDKDNHLIKLLN | 0.281 | 0.568
PDKENHLIKLLN | 0.265 | 0.602
PDKHNHLIKLLN | 0.0998 | 0.622
PDKNNHLIKLLN | 0.242 | 0.757
PDKRNHEIKLLN | 0.447 | 0.596

Sequence | protein stability index [1] | protein stability index [2]
PDKRNHLFKLLN | 0.112 | 0.609
PDKRNHLIKALN | 0.252 | 0.589
PDKRNHLIKLHN | 0.359 | 0.593
PDKRNHLIKLLH | 0.154 | 0.612
PDKRNHLIKLLNC | 0.124 | 0.663
PDKRNHLIKLLNF | 0.176 | 0.67
PDKRNHLIKLLNI | 0.216 | 0.662
PDKRNHLIKLLP | 0.595 | 0.596
PDKRNHLIKLLT | 0.205 | 0.622
PDKRNHLIKLLW | 0.578 | 0.586
PDKRNHLIKLSN | 0.486 | 0.609
PDKRNHLIKLTN | 0.292 | 0.568
PDKRNHLIKNLN | 0.473 | 0.54
PDKRNHLIKQLN | 0.0992 | 0.575
PDKRNHLINLLN | 0.113 | 0.605
PDKRNMLIKLLN | 0.0899 | 0.722
PDKRNRLIKLLN | 0.141 | 0.592
PDKRTHLIKLLN | 0.0881 | 0.655
PDKTNHLIKLLN | 0.144 | 0.658
PDRRNHLIKLLN | 0.118 | 0.664

Reference: the supplement of paper PMC10724198
